Experimental data from patent publication US8541373B2, “BChE albumin fusions for the treatment of cocaine abuse” (priority 2009, dated 2013).

Tested on: cocaine
Test: Plasma cocaine, benzoylecgonine and ecgonine methyl ester (LC-MS) and cocaine PK after IV cocaine post-AlbuBChE
Type: in vivo, cynomolgus monkeys
Conditions: for Ecgonine methyl ester plasma concentration (mean) / Mean benzoylecgonine plasma concentration / Mean cocaine plasma concentration / Mean benzoylecgonine AUC(0-t) / Mean cocaine AUC % Extrap / Mean cocaine AUC(0-t) / Mean cocaine AUC(0-∞) / Mean cocaine C0 / Mean cocaine CI / Mean cocaine Vss / Mean cocaine t½: 5 mg/kg IM
Description: Blood was placed into K2EDTA blood collection tubes with esterase inhibitor diisopropylfluorophosphate (DFP). Tubes were inverted several times and placed on wet ice upon collection. Samples were centrifuged at 2-8° C. within 45 minutes of collection. The resultant plasma was recovered and a single 200 μL aliquot of plasma was placed into polypropylene tubes. Plasma samples were frozen over dry ice and stored at −75±15° C.
The following outline describes the LC-MS-based assay employed for the measurement of cocaine in plasma samples. Prior to MS analysis, plasma samples, calibration standards and controls were extracted using supported liquid extraction (SLE-ISOLUTE, Biotage). Twenty-five microliters of samples (25 μL) received 150 μl of 5% Ammonium hydroxide and 25 μl internal standard solution (Cocaine-d3). After mixing and transfer to SLE plate, samples were eluted with methylene chloride and evaporated to dryness. After resuspension in 50 μl of reconstitution solution—5% ACM in 10 mM ammonium acetate in water, 10 μl was injected onto Thermo Hypercarb column at 0.5 ml/min. Mobile phase was biphasic. Mass spectrophotometric detection was performed using Api 4000, APCI positive interface and Multiple Reaction Monitoring (MRM). Plasma concentrations of cocaine, benzoylecgonine and ecgonine methyl ester were determined using this assay.
When the data permits, pharmacokinetic parameter values for cocaine and its metabolites were determined using plasma concentration-times profiles for individual animals at all the study days of cocaine administration. […] Specifically the model for non-compartmental analysis with IV bolus input for cocaine and extravascular input for the metabolites.

[1] = cocaine 1 mg/kg IV 48 hr post-AlbuBChE, 10 min after cocaine
[2] = cocaine 1 mg/kg IV 48 hr post-AlbuBChE, 15 min after cocaine
[3] = cocaine 1 mg/kg IV 48 hr post-AlbuBChE, 20 min after cocaine
[4] = cocaine 1 mg/kg IV 48 hr post-AlbuBChE, 30 min after cocaine
[5] = cocaine 1 mg/kg IV 48 hr post-AlbuBChE, 40 min after cocaine
[6] = cocaine 1 mg/kg IV 48 hr post-AlbuBChE, 60 min after cocaine
[7] = cocaine 1 mg/kg IV 96 hr post-AlbuBChE
[8] = cocaine 1 mg/kg IV 96 hr post-AlbuBChE, 5 min after cocaine
[9] = cocaine 1 mg/kg IV 96 hr post-AlbuBChE, 10 min after cocaine
[10] = cocaine 1 mg/kg IV 96 hr post-AlbuBChE, 15 min after cocaine
[11] = cocaine 1 mg/kg IV 96 hr post-AlbuBChE, 20 min after cocaine
[12] = cocaine 1 mg/kg IV 96 hr post-AlbuBChE, 30 min after cocaine
[13] = cocaine 1 mg/kg IV 96 hr post-AlbuBChE, 40 min after cocaine
[14] = cocaine 1 mg/kg IV 96 hr post-AlbuBChE, 60 min after cocaine
[15] = cocaine 1 mg/kg IV 120 hr post-AlbuBChE
[16] = cocaine 1 mg/kg IV 120 hr post-AlbuBChE, 5 min after cocaine
[17] = cocaine 1 mg/kg IV 120 hr post-AlbuBChE, 10 min after cocaine
[18] = cocaine 1 mg/kg IV 120 hr post-AlbuBChE, 15 min after cocaine
[19] = cocaine 1 mg/kg IV 120 hr post-AlbuBChE, 20 min after cocaine
[20] = cocaine 1 mg/kg IV 120 hr post-AlbuBChE, 30 min after cocaine
[21] = cocaine 1 mg/kg IV 120 hr post-AlbuBChE, 40 min after cocaine
[22] = cocaine 1 mg/kg IV 120 hr post-AlbuBChE, 60 min after cocaine
[23] = cocaine 1 mg/kg IV 240 hr post-AlbuBChE
[24] = cocaine 1 mg/kg IV 240 hr post-AlbuBChE, 5 min after cocaine
[25] = cocaine 1 mg/kg IV 240 hr post-AlbuBChE, 10 min after cocaine
[26] = cocaine 1 mg/kg IV 240 hr post-AlbuBChE, 15 min after cocaine
[27] = cocaine 1 mg/kg IV 240 hr post-AlbuBChE, 20 min after cocaine
[28] = cocaine 1 mg/kg IV 240 hr post-AlbuBChE, 30 min after cocaine
[29] = cocaine 1 mg/kg IV 240 hr post-AlbuBChE, 40 min after cocaine
[30] = cocaine 1 mg/kg IV 240 hr post-AlbuBChE, 60 min after cocaine

## AlbuBChE
[1]
  Ecgonine methyl ester plasma concentration (mean): 68.9 ng/mL
  Mean benzoylecgonine plasma concentration: 21.0 ng/mL
  Mean cocaine plasma concentration: 89.9 ng/mL
[2]
  Ecgonine methyl ester plasma concentration (mean): 102 ng/mL
  Mean benzoylecgonine plasma concentration: 24.4 ng/mL
  Mean cocaine plasma concentration: 82.7 ng/mL
[3]
  Ecgonine methyl ester plasma concentration (mean): 107 ng/mL
  Mean benzoylecgonine plasma concentration: 23.7 ng/mL
  Mean cocaine plasma concentration: 49.5 ng/mL
[4]
  Ecgonine methyl ester plasma concentration (mean): 108 ng/mL
  Mean benzoylecgonine plasma concentration: 25.9 ng/mL
  Mean cocaine plasma concentration: 36.7 ng/mL
[5]
  Ecgonine methyl ester plasma concentration (mean): 106 ng/mL
  Mean benzoylecgonine plasma concentration: 25.5 ng/mL
  Mean cocaine plasma concentration: 18.9 ng/mL
[6]
  Ecgonine methyl ester plasma concentration (mean): 108 ng/mL
  Mean benzoylecgonine plasma concentration: 24.4 ng/mL
  Mean cocaine plasma concentration: 5.74 ng/mL
[7]
  Mean benzoylecgonine AUC(0-t): 3222 ng·min/mL
  Mean cocaine AUC % Extrap: 14.2%
  Mean cocaine AUC(0-t): 6624 ng·min/mL
  Mean cocaine AUC(0-∞): 7729 ng·min/mL
  Mean cocaine C0: 190 ng/mL
  Mean cocaine CI: 129 mL/min/kg
  Mean cocaine Vss: 4.111 L/kg
  Mean cocaine t½: 21.3 min
[8]
  Ecgonine methyl ester plasma concentration (mean): 100 ng/mL
  Mean benzoylecgonine plasma concentration: 44.2 ng/mL
  Mean cocaine plasma concentration: 176 ng/mL
[9]
  Ecgonine methyl ester plasma concentration (mean): 60.9 ng/mL
  Mean benzoylecgonine plasma concentration: 43.5 ng/mL
  Mean cocaine plasma concentration: 166 ng/mL
[10]
  Ecgonine methyl ester plasma concentration (mean): 82.2 ng/mL
  Mean benzoylecgonine plasma concentration: 49.7 ng/mL
  Mean cocaine plasma concentration: 174 ng/mL
[11]
  Ecgonine methyl ester plasma concentration (mean): 104 ng/mL
  Mean benzoylecgonine plasma concentration: 51.1 ng/mL
  Mean cocaine plasma concentration: 136 ng/mL
[12]
  Ecgonine methyl ester plasma concentration (mean): 111 ng/mL
  Mean benzoylecgonine plasma concentration: 56.1 ng/mL
  Mean cocaine plasma concentration: 99.0 ng/mL
[13]
  Ecgonine methyl ester plasma concentration (mean): 126 ng/mL
  Mean benzoylecgonine plasma concentration: 57.7 ng/mL
  Mean cocaine plasma concentration: 80.6 ng/mL
[14]
  Ecgonine methyl ester plasma concentration (mean): 127 ng/mL
  Mean benzoylecgonine plasma concentration: 60.5 ng/mL
  Mean cocaine plasma concentration: 35.2 ng/mL
[15]
  Mean benzoylecgonine AUC(0-t): 3624 ng·min/mL
  Mean cocaine AUC % Extrap: 14.5%
  Mean cocaine AUC(0-t): 9378 ng·min/mL
  Mean cocaine AUC(0-∞): 11046 ng·min/mL
  Mean cocaine C0: 411 ng/mL
  Mean cocaine CI: 93.0 mL/min/kg
  Mean cocaine Vss: 2.857 L/kg
  Mean cocaine t½: 22.3 min
[16]
  Ecgonine methyl ester plasma concentration (mean): 45.5 ng/mL
  Mean benzoylecgonine plasma concentration: 44.6 ng/mL
  Mean cocaine plasma concentration: 298 ng/mL
[17]
  Ecgonine methyl ester plasma concentration (mean): 46.0 ng/mL
  Mean benzoylecgonine plasma concentration: 47.5 ng/mL
  Mean cocaine plasma concentration: 217 ng/mL
[18]
  Ecgonine methyl ester plasma concentration (mean): 96.5 ng/mL
  Mean benzoylecgonine plasma concentration: 50.3 ng/mL
  Mean cocaine plasma concentration: 216 ng/mL
[19]
  Ecgonine methyl ester plasma concentration (mean): 60.1 ng/mL
  Mean benzoylecgonine plasma concentration: 57.3 ng/mL
  Mean cocaine plasma concentration: 161 ng/mL
[20]
  Ecgonine methyl ester plasma concentration (mean): 79.9 ng/mL
  Mean benzoylecgonine plasma concentration: 63.6 ng/mL
  Mean cocaine plasma concentration: 139 ng/mL
[21]
  Ecgonine methyl ester plasma concentration (mean): 122 ng/mL
  Mean benzoylecgonine plasma concentration: 69.5 ng/mL
  Mean cocaine plasma concentration: 113 ng/mL
[22]
  Ecgonine methyl ester plasma concentration (mean): 187 ng/mL
  Mean benzoylecgonine plasma concentration: 69.2 ng/mL
  Mean cocaine plasma concentration: 49.5 ng/mL
[23]
  Mean benzoylecgonine AUC(0-t): 5088 ng·min/mL
  Mean cocaine AUC % Extrap: 29.2%
  Mean cocaine AUC(0-t): 12952 ng·min/mL
  Mean cocaine AUC(0-∞): 18578 ng·min/mL
  Mean cocaine C0: 424 ng/mL
  Mean cocaine CI: 55.6 mL/min/kg
  Mean cocaine Vss: 2.637 L/kg
  Mean cocaine t½: 33.8 min
[24]
  Ecgonine methyl ester plasma concentration (mean): 127 ng/mL
  Mean benzoylecgonine plasma concentration: 44.9 ng/mL
  Mean cocaine plasma concentration: 346 ng/mL
[25]
  Ecgonine methyl ester plasma concentration (mean): 26.1 ng/mL
  Mean benzoylecgonine plasma concentration: 56.4 ng/mL
  Mean cocaine plasma concentration: 283 ng/mL
[26]
  Ecgonine methyl ester plasma concentration (mean): 30.7 ng/mL
  Mean benzoylecgonine plasma concentration: 71.9 ng/mL
  Mean cocaine plasma concentration: 283 ng/mL
[27]
  Ecgonine methyl ester plasma concentration (mean): 35.1 ng/mL
  Mean benzoylecgonine plasma concentration: 83.4 ng/mL
  Mean cocaine plasma concentration: 226 ng/mL
[28]
  Ecgonine methyl ester plasma concentration (mean): 49.6 ng/mL
  Mean benzoylecgonine plasma concentration: 88.4 ng/mL
  Mean cocaine plasma concentration: 211 ng/mL
[29]
  Ecgonine methyl ester plasma concentration (mean): 53.1 ng/mL
  Mean benzoylecgonine plasma concentration: 101 ng/mL
  Mean cocaine plasma concentration: 161 ng/mL
[30]
  Ecgonine methyl ester plasma concentration (mean): 58.0 ng/mL
  Mean benzoylecgonine plasma concentration: 108 ng/mL
  Mean cocaine plasma concentration: 111 ng/mL
240 hr post-AlbuBChE administration of 0.2, 1 or 5 mg/kg
  AlbuBChE activity (cocaine concentrations vs Day 1 control): not active
